Reference: paper PMC8217500

Experiments:
[1] = biological target: Fc-tagged SARS-CoV-2 receptor-binding domain (RBD), wild type (SARS-CoV-2) (UniProt P0DTC2); test: BLI; Fc-tagged RBD (20 ug/ml) loaded on anti-hIgG Fc Capture (AHC) biosensors, Fab in solution at four to five concentrations; Octet Red96e, room temperature, 1x kinetics buffer (1x PBS pH 7.4, 0.01% w/v BSA, 0.002% v/v Tween 20); 1:1 binding model
[2] = biological target: Fc-tagged SARS-CoV-2 spike receptor-binding domain (RBD) (SARS-CoV-2) (UniProt P0DTC2); test: BLI; Fc-tagged RBD (20 ug/ml) loaded on anti-hIgG Fc Capture (AHC) biosensors, Fab in solution; room temperature; 1x PBS pH 7.4, 0.01% BSA, 0.002% Tween 20; 1:1 binding model

Substance | Kd [1] | Kd [2]
COVD21-C8 F58Y Fab | > 1 µM | –
COVD21-C8 Fab, Y58 variant (heavy chain F58Y) | – | 2 µM
